Reference: paper PMC10714721
Where “and” joins values, the source holds several entries; their conditions need not be identical. Identical values can stand only once.

Molecular target: histidine-tagged VfmH (Dickeya dadantii)
Assay: not stated; oligomerization pattern of VfmH with or without c-di-GMP or ATP (Fig. S5); method not given

With histidine-tagged VfmH (natural protein) the stoichiometry N was 6 and 2 and 3.
